{"source": "paper PMC3934934", "about": "“The Self-Interaction of a Nodavirus Replicase Is Enhanced by Mitochondrial Membrane Lipids” (PLoS ONE, 2014)", "binders": {"B1": {"name": "His-tagged WhNV protein A, in vitro translated (natural protein)", "chain": "MSSVIKTIVVKTLQCTVKCVCVGVRQQYGLLRRHPKTIACALVGGIIAHDVLHLYAAVYRVENPWEFVPTEGPRGVIVLRVYNALRFTAAKWRWNCWTIFGKFPFNSEQFSRIMETSTERKPDLRPLLVPAHETIEVYPCNNIHSHPRSAEFRSSANEYLVRSVRRAGYPPYVVSSSKRDFCDGNRFFYCPKDFGMQFRNDPISNNHALVFTDVDYYANMNRWLQLFLPTCLYTLVPTRLNYSNDEFAYRFENNEIVYNVTGGGEYRHSLWDYKGDTVTVVDEYGNLLIFDIEQRRVQGDEQHRLIWLLPKAKITDPLWIVGPTEWYDKLLVRKTVQQGRLKILWEPIADDLSIGLHGSNYSVSLKGELFEAIRTRISCKDSTPYVSDVERMLREAKHKNFLTDAPILYHCFQDDVIIRPNVVKTGSFPVTYNAIPKKAPSVTEDPKMPGQVVTTPLVSQPALFAGKGFNADKACIEGRIEKVRNVTKFPIKYVRYAAEFVKLVIPETIAGTGVPNSIGMIREEQDKVAQRARFDRVAPIMSTQTENSIKAFIKTEMYAAAKAPRNISTMAPEITIQSSAYSLPMAKIFKKIPWYCPGKNPKEITLRLAEVCLQDPDHELEEGDYTCMDGTQSPDYSDLLLLPIYMRYFAKQYRGQFKNLYNQIYKQRATTSSGVPYNPEMTIRSGSSITTHAGTLNNAFNIYAALRDMGYDETTAWDKVGAVFGDDSLNANHQGEFHSYIEHVTKVLGMRYKSNLRERGQPVLFLGRYFVDPITSYDSFADPMRTIGKLHATANKNVSVEQGAANKAHGYITTDSKTPIIGAWARRVLEITKKKFKNGTGEEQYRCSNAWPQKDEAAIRAAMAAVLEVDEAQLIAQNEAVLKVNSLDQFPVVFDTYYDHKQLAEVDGQLVGTDLHIKEEDERQPETSIDSVPSTGPPPSNGDPNAGGKPTDGPSKGKRKVKGRRPRTAGDPATLRLTDAGSSRRVKPPRKLRPEAKRGGRPIETLVFKNSSLS", "notes": "also called His-protA; FL His-protA; source: in vitro translated in nuclease-treated rabbit reticulocyte lysates"}}, "assay_in_all_cases": "pull-down; MBP fusion protein (1 µM) held on amylose resin, His-tagged protein (1 µM) in vitro translated in rabbit reticulocyte lysate; room temperature, 4 hrs; no lipids; Western blot with anti-His; signals given as % of FL to FL protein A self-interaction", "details_in_all_cases": "one partner purified", "key": {"[1]": {"target": "T1, MBP-protA fragment aa 1–254 (Wuhan nodavirus (WhNV), UniProt Q3KSM3 1-254)", "T1 construct": "also called 1–254 MBP/protA; source: E. coli strain TB1, purified (amylose resin); not shown: MBP, N-terminal, kept", "T1 sequence": "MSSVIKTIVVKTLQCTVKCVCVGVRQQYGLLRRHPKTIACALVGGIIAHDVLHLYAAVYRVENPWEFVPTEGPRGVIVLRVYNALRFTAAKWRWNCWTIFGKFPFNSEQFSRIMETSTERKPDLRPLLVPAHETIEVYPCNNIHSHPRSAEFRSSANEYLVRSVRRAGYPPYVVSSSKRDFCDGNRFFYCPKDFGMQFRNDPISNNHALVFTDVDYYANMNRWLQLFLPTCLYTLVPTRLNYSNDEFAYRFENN"}, "[2]": {"target": "T2, MBP-protA fragment aa 1–839 (Wuhan nodavirus (WhNV), UniProt Q3KSM3 1-839)", "T2 construct": "also called 1–839 MBP/protA; source: E. coli strain TB1, purified (amylose resin); not shown: MBP, N-terminal, kept", "T2 sequence": "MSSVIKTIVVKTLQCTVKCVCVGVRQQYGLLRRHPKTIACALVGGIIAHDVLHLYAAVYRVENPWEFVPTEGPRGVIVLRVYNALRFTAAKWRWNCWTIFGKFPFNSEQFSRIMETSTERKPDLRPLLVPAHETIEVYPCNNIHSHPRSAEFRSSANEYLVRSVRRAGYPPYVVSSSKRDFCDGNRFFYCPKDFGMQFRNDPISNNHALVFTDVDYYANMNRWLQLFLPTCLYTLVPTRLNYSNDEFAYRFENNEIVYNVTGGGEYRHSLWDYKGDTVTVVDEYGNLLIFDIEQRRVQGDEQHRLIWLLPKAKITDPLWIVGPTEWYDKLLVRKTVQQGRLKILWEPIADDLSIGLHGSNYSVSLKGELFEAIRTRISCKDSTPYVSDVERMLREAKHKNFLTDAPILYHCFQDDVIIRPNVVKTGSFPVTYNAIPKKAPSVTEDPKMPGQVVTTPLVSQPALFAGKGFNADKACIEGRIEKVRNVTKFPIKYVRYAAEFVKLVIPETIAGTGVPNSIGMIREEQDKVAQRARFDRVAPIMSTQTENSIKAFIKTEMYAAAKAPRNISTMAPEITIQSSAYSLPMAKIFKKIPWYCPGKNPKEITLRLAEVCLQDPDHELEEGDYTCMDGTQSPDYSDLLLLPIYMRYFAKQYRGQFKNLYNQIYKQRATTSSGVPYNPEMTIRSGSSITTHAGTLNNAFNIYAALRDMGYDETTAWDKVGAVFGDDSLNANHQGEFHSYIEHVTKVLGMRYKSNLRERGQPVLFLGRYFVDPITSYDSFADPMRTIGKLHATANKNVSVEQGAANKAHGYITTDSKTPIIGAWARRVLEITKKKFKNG"}, "[3]": {"target": "T3, MBP-protA fragment aa 1–480 (Wuhan nodavirus (WhNV), UniProt Q3KSM3 1-480)", "T3 construct": "also called 1–480 MBP/protA; source: E. coli strain TB1, purified (amylose resin); not shown: MBP, N-terminal, kept", "T3 sequence": "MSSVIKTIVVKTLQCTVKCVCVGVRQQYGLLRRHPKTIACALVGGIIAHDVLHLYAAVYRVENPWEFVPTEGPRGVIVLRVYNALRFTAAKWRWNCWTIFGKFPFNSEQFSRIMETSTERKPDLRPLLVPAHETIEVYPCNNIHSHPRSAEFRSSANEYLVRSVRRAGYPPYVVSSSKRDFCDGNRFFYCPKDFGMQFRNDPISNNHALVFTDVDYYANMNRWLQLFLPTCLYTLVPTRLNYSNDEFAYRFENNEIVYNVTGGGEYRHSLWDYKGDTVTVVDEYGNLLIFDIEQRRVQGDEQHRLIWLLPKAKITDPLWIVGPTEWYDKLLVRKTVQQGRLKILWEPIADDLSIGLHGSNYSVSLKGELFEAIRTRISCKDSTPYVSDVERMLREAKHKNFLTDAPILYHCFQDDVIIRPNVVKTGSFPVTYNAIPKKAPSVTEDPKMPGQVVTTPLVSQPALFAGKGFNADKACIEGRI"}}, "data": [{"binder": "B1", "values": [{"measurement": "self-interaction efficiency, % of FL to FL protein A self-interaction", "setting": "[1]", "result": 67, "unit": "%"}, {"measurement": "self-interaction efficiency, % of FL to FL protein A self-interaction", "setting": "[2]", "result": 108, "unit": "%"}, {"measurement": "self-interaction efficiency, % of FL to FL protein A self-interaction", "setting": "[3]", "result": 94, "unit": "%"}]}]}
